Results published in PMC9352346, “Arl15 upregulates the TGFβ family signaling by promoting the assembly of the Smad-complex” (eLife, 2022).

T1: His-Smad4 (UniProt Q13485 1-552)
T1 construct: Smad4; also called purified His-tagged Smad4; source: E. coli BL21, purified (nickel-nitrilotriacetic acid agarose)
T1 sequence (looked up): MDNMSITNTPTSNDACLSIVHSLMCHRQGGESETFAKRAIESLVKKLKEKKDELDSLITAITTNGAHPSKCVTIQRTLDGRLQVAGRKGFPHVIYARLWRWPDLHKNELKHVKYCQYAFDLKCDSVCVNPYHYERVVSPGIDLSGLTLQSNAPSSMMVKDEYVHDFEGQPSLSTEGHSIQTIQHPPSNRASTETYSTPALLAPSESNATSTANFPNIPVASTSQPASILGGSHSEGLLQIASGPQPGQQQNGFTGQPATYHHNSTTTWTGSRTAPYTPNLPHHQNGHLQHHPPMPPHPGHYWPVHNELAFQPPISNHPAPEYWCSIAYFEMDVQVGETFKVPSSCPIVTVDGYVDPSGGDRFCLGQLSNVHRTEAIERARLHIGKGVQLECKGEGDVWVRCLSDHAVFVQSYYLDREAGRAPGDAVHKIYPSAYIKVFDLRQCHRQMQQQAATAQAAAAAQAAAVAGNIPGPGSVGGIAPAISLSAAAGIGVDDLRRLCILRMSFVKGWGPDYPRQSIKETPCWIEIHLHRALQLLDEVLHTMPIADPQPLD

B1: GST-Arl15-AL (natural protein, human, UniProt Q9NXU5 1-204, looked up)
chain: MSDLRITEAFLYMDYLCFRALCCKGPPPARPEYDLVCIGLTGSGKTSLLSKLCSESPDNVVSTTGFSIKAVPFQNAILNVKELGGLDNIRKYWSRYYQGSQGVIFVLDSASSEDDLEAARNELHSALQHPQLCTLPFLILANHQDKPAARSVQEIKKYFELEPLARGKRWILQPCSLDDMDALKDSFSQLINLLEEKDHEAVRM
notes: Arl15, human, A86L; also called bead-immobilized Arl15-AL; GST-Arl15-A86L; source: E. coli BL21, purified (Glutathione Sepharose 4B)
B2: His-Smad2-SE (natural protein, UniProt Q15796 1-467, looked up)
chain: MSSILPFTPPVVKRLLGWKKSAGGSGGAGGGEQNGQEEKWCEKAVKSLVKKLKKTGRLDELEKAITTQNCNTKCVTIPSTCSEIWGLSTPNTIDQWDTTGLYSFSEQTRSLDGRLQVSHRKGLPHVIYCRLWRWPDLHSHHELKAIENCEYAFNLKKDEVCVNPYHYQRVETPVLPPVLVPRHTEILTELPPLDDYTHSIPENTNFPAGIEPQSNYIPETPPPGYISEDGETSDQQLNQSMDTGSPAELSPTTLSPVNHSLDLQPVTYSEPAFWCSIAYYELNQRVGETFHASQPSLTVDGFTDPSNSERFCLGLLSNVNRNATVEMTRRHIGRGVRLYYIGGEVFAECLSDSAIFVQSPNCNQRYGWHPATVCKIPPGCNLKIFNNQEFAALLAQSVNQGFEAVYQLTRMCTIRMSFVKGWGAEYRRQTVTSTPCWIELHLNGPLQWLDKVLTQMGSPSVRCSEME
notes: Smad2 with phosphomimetic mutations S465E/S467E; also called His-Smad2 with S465E/S467E mutations; source: E. coli BL21, purified (nickel-nitrilotriacetic acid agarose)

Biological target: T1, His-Smad4
Assay: pull-down; bead-immobilized GST-Arl15-AL incubated with purified His-tagged Smads (His-Smad4, His-Smad2-SE, alone or together); immunoblotted against His-tag
Settings: both partners purified

Binder | binding result
B1 | binds
B2 | binds
